Reference: US20210388110A1 (published 2021)
“And” between values parts separate entries of the source, which are not always exact repeats. Equal values may be shown once.

Tests used:
[1] = target: T1, soluble human CD3ε chain (human, UniProt P07766 23-126, limits assumed); experiment: SPR (Biacore), soluble human CD3ε chain
T1 construct: also called human CD3 epsilon chain

[2] = target: T2, soluble human GPC3 (human, UniProt P51654 25-563, limits assumed); experiment: SPR (Biacore), single-arm antibody, soluble human GPC3
T2 construct: also called glypican 3
T2 sequence (P51654 other isoform, or with tags, fused parts or gaps limits assumed, form in doubt): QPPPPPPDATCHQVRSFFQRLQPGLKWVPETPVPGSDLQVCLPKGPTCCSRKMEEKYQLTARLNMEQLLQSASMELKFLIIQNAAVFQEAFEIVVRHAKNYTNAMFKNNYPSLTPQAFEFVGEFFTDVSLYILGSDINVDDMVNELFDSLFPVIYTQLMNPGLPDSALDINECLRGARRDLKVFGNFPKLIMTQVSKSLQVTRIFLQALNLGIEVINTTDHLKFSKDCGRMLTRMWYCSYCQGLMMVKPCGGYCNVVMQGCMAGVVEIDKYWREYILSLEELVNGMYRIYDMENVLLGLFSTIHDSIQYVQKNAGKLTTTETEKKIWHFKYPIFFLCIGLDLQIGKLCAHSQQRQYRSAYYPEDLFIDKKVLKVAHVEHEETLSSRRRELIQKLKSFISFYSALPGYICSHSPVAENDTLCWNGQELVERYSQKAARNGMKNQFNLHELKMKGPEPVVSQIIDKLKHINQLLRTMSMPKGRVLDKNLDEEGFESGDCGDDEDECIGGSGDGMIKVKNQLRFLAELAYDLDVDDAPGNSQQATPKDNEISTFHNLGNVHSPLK

T1 sequence (P07766 23-126 limits assumed): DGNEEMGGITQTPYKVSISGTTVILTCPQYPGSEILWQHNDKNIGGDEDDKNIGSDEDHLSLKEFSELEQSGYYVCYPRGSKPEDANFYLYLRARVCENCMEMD

B1: rCE115H-E22Hh/none-Hi-Kn010G3/rCE115L-k0 (antibody, human IgG1, kappa, L234A L235A, N297A)
heavy: EVQLVETGGSLVQPGKSLKLTCATSGFTFSNAWMHWVRQSPEKQLEWVAQIKAKSNNYATYYAESVKGRFTISRDDSKSNIYLQMNSLKEEDTAVYYCRYVHYGAYYGVDAWGQGTSVTVSSASTKGPSVFPLAPSSKSTSGGTAALGCLVKDYFPEPVTVSWNSGALTSGVHTFPAVLQSSGLYSLSSVVTVPSSSLGTQTYICNVNHKPSNTKVDKKVEPKSCDKTHTCPPCPAPEAAGGPSVFLFPPKPKDTLMISRTPEVTCVVVDVSHEDPEVKFNWYVDGVEVHNAKTKPREEQYASTYRVVSVLTVLHQDWLNGKEYKCKVSNKALPAPIEKTISKAKGQPREPQVYTLPPSRCELTKNQVSLSCAVKGFYPSDIAVEWESNGQPENNYKTTPPVLDSDGSFFLVSKLTVDKSRWQQGNVFSCSVMHEALHNHYTQKSLSLSPDYKDDDDK
chain: EPKSSDKTHTCPPCPAPELLGGPSVFLFPPKPKDTLMISRTPEVTCVVVDVSHEDPEVKFNWYVDGVEVHNAKTKPREEQYNSTYRVVSVLTVLHQDWLNGKEYKCKVSNKALPAPIEKTISKAKGQPREPQVCTLPPSRDELTKNQVSLWCLVKGFYPSDIAVEWESNGQPENNYKTTPPVLDSDGSFFLYSKLTVDKSRWQQGNVFSCSVMHEALHNRYTQKSLSLSP
light: DVVMTQTPVSMSVSLGGQVSISCRSSQSLVHNNGNTYVSWYIQKPSQSPQLLIYKVSNRFSGISDRFSGSGSGTDFTLKISRVEPDDLGVYYCGQGTQDPYTFGAGTKLELKRTVAAPSVFIFPPSDEQLKSGTASVVCLLNNFYPREAKVQWKVDNALQSGNSQESVTEQDSKDSTYSLSSTLTLSKADYEKHKVYACEVTHQGLSSPVTKSFNRGEC
notes: one-arm antibody (single Fab) with Fab-less hinge-Fc chain Hi-Kn010G3; also called rCE115H-E22Hh//-Hi-Kn010G3/rCE115L-k0
Which Kd [1] does the source give for B1 here?
Its Kd is 124 nM and 138 nM.

B2: GCH022-G1dh/none-Hi-Kn010G3/L0000-k0 (antibody, human IgG1, kappa)
heavy: not shown
chain: EPKSSDKTHTCPPCPAPELLGGPSVFLFPPKPKDTLMISRTPEVTCVVVDVSHEDPEVKFNWYVDGVEVHNAKTKPREEQYNSTYRVVSVLTVLHQDWLNGKEYKCKVSNKALPAPIEKTISKAKGQPREPQVCTLPPSRDELTKNQVSLWCLVKGFYPSDIAVEWESNGQPENNYKTTPPVLDSDGSFFLYSKLTVDKSRWQQGNVFSCSVMHEALHNRYTQKSLSLSP
light: DIVMTQSPLSLPVTPGEPASISCRSSQSLVHSNRNTYLHWYQQKPGQAPRLLIYKVSNRFSGVPDRFSGSGSGTDFTLKISRVEAEDVGVYYCGQGTQVPYTFGQGTKLEIKRTVAAPSVFIFPPSDEQLKSGTASVVCLLNNFYPREAKVQWKVDNALQSGNSQESVTEQDSKDSTYSLSSTLTLSKADYEKHKVYACEVTHQGLSSPVTKSFNRGEC
notes: single-arm antibody
With B2 as the binder, how does the Kd [2] read?
Its Kd is 4.92 nM.

B3: GCH008-G1dh/none-Hi-Kn010G3/L0000-k0 (antibody, human IgG1, kappa)
heavy: not shown
chain: EPKSSDKTHTCPPCPAPELLGGPSVFLFPPKPKDTLMISRTPEVTCVVVDVSHEDPEVKFNWYVDGVEVHNAKTKPREEQYNSTYRVVSVLTVLHQDWLNGKEYKCKVSNKALPAPIEKTISKAKGQPREPQVCTLPPSRDELTKNQVSLWCLVKGFYPSDIAVEWESNGQPENNYKTTPPVLDSDGSFFLYSKLTVDKSRWQQGNVFSCSVMHEALHNRYTQKSLSLSP
light: DIVMTQSPLSLPVTPGEPASISCRSSQSLVHSNRNTYLHWYQQKPGQAPRLLIYKVSNRFSGVPDRFSGSGSGTDFTLKISRVEAEDVGVYYCGQGTQVPYTFGQGTKLEIKRTVAAPSVFIFPPSDEQLKSGTASVVCLLNNFYPREAKVQWKVDNALQSGNSQESVTEQDSKDSTYSLSSTLTLSKADYEKHKVYACEVTHQGLSSPVTKSFNRGEC
notes: single-arm antibody
With B3 as the binder, how does the Kd [2] read?
Its Kd is 5.55 nM.

B4: GCH003-G1dh/none-Hi-Kn010G3/L0000-k0 (antibody, human IgG1, kappa)
heavy: not shown
chain: EPKSSDKTHTCPPCPAPELLGGPSVFLFPPKPKDTLMISRTPEVTCVVVDVSHEDPEVKFNWYVDGVEVHNAKTKPREEQYNSTYRVVSVLTVLHQDWLNGKEYKCKVSNKALPAPIEKTISKAKGQPREPQVCTLPPSRDELTKNQVSLWCLVKGFYPSDIAVEWESNGQPENNYKTTPPVLDSDGSFFLYSKLTVDKSRWQQGNVFSCSVMHEALHNRYTQKSLSLSP
light: DIVMTQSPLSLPVTPGEPASISCRSSQSLVHSNRNTYLHWYQQKPGQAPRLLIYKVSNRFSGVPDRFSGSGSGTDFTLKISRVEAEDVGVYYCGQGTQVPYTFGQGTKLEIKRTVAAPSVFIFPPSDEQLKSGTASVVCLLNNFYPREAKVQWKVDNALQSGNSQESVTEQDSKDSTYSLSSTLTLSKADYEKHKVYACEVTHQGLSSPVTKSFNRGEC
notes: single-arm antibody
How did the Kd [2] turn out when B4 was run?
Its Kd is 5.2 nM.

B5: GCH023-G1dh/none-Hi-Kn010G3/L0000-k0 (antibody, human IgG1, kappa)
heavy: not shown
chain: EPKSSDKTHTCPPCPAPELLGGPSVFLFPPKPKDTLMISRTPEVTCVVVDVSHEDPEVKFNWYVDGVEVHNAKTKPREEQYNSTYRVVSVLTVLHQDWLNGKEYKCKVSNKALPAPIEKTISKAKGQPREPQVCTLPPSRDELTKNQVSLWCLVKGFYPSDIAVEWESNGQPENNYKTTPPVLDSDGSFFLYSKLTVDKSRWQQGNVFSCSVMHEALHNRYTQKSLSLSP
light: DIVMTQSPLSLPVTPGEPASISCRSSQSLVHSNRNTYLHWYQQKPGQAPRLLIYKVSNRFSGVPDRFSGSGSGTDFTLKISRVEAEDVGVYYCGQGTQVPYTFGQGTKLEIKRTVAAPSVFIFPPSDEQLKSGTASVVCLLNNFYPREAKVQWKVDNALQSGNSQESVTEQDSKDSTYSLSSTLTLSKADYEKHKVYACEVTHQGLSSPVTKSFNRGEC
notes: single-arm antibody
With B5 as the binder, how does the Kd [2] read?
Its Kd is 4.94 nM.

B6: GCH025-G1dh/none-Hi-Kn010G3/L0000-k0 (antibody, human IgG1, kappa)
heavy: not shown
chain: EPKSSDKTHTCPPCPAPELLGGPSVFLFPPKPKDTLMISRTPEVTCVVVDVSHEDPEVKFNWYVDGVEVHNAKTKPREEQYNSTYRVVSVLTVLHQDWLNGKEYKCKVSNKALPAPIEKTISKAKGQPREPQVCTLPPSRDELTKNQVSLWCLVKGFYPSDIAVEWESNGQPENNYKTTPPVLDSDGSFFLYSKLTVDKSRWQQGNVFSCSVMHEALHNRYTQKSLSLSP
light: DIVMTQSPLSLPVTPGEPASISCRSSQSLVHSNRNTYLHWYQQKPGQAPRLLIYKVSNRFSGVPDRFSGSGSGTDFTLKISRVEAEDVGVYYCGQGTQVPYTFGQGTKLEIKRTVAAPSVFIFPPSDEQLKSGTASVVCLLNNFYPREAKVQWKVDNALQSGNSQESVTEQDSKDSTYSLSSTLTLSKADYEKHKVYACEVTHQGLSSPVTKSFNRGEC
notes: single-arm antibody
B6 was tested. Which Kd [2] did it give?
The Kd was 5.05 nM.

B7: GCH026-G1dh/none-Hi-Kn010G3/L0000-k0 (antibody, human IgG1, kappa)
heavy: not shown
chain: EPKSSDKTHTCPPCPAPELLGGPSVFLFPPKPKDTLMISRTPEVTCVVVDVSHEDPEVKFNWYVDGVEVHNAKTKPREEQYNSTYRVVSVLTVLHQDWLNGKEYKCKVSNKALPAPIEKTISKAKGQPREPQVCTLPPSRDELTKNQVSLWCLVKGFYPSDIAVEWESNGQPENNYKTTPPVLDSDGSFFLYSKLTVDKSRWQQGNVFSCSVMHEALHNRYTQKSLSLSP
light: DIVMTQSPLSLPVTPGEPASISCRSSQSLVHSNRNTYLHWYQQKPGQAPRLLIYKVSNRFSGVPDRFSGSGSGTDFTLKISRVEAEDVGVYYCGQGTQVPYTFGQGTKLEIKRTVAAPSVFIFPPSDEQLKSGTASVVCLLNNFYPREAKVQWKVDNALQSGNSQESVTEQDSKDSTYSLSSTLTLSKADYEKHKVYACEVTHQGLSSPVTKSFNRGEC
notes: single-arm antibody
With B7 as the binder, how does the Kd [2] read?
Its Kd is 5.17 nM.

B8: GCH034-G1dh/none-Hi-Kn010G3/L0000-k0 (antibody, human IgG1, kappa)
heavy: not shown
chain: EPKSSDKTHTCPPCPAPELLGGPSVFLFPPKPKDTLMISRTPEVTCVVVDVSHEDPEVKFNWYVDGVEVHNAKTKPREEQYNSTYRVVSVLTVLHQDWLNGKEYKCKVSNKALPAPIEKTISKAKGQPREPQVCTLPPSRDELTKNQVSLWCLVKGFYPSDIAVEWESNGQPENNYKTTPPVLDSDGSFFLYSKLTVDKSRWQQGNVFSCSVMHEALHNRYTQKSLSLSP
light: DIVMTQSPLSLPVTPGEPASISCRSSQSLVHSNRNTYLHWYQQKPGQAPRLLIYKVSNRFSGVPDRFSGSGSGTDFTLKISRVEAEDVGVYYCGQGTQVPYTFGQGTKLEIKRTVAAPSVFIFPPSDEQLKSGTASVVCLLNNFYPREAKVQWKVDNALQSGNSQESVTEQDSKDSTYSLSSTLTLSKADYEKHKVYACEVTHQGLSSPVTKSFNRGEC
notes: single-arm antibody
For B8, which Kd [2] is on record?
The Kd was 5.09 nM.

B9: GCH032-G1dh/none-Hi-Kn010G3/L0000-k0 (antibody, human IgG1, kappa)
heavy: not shown
chain: EPKSSDKTHTCPPCPAPELLGGPSVFLFPPKPKDTLMISRTPEVTCVVVDVSHEDPEVKFNWYVDGVEVHNAKTKPREEQYNSTYRVVSVLTVLHQDWLNGKEYKCKVSNKALPAPIEKTISKAKGQPREPQVCTLPPSRDELTKNQVSLWCLVKGFYPSDIAVEWESNGQPENNYKTTPPVLDSDGSFFLYSKLTVDKSRWQQGNVFSCSVMHEALHNRYTQKSLSLSP
light: DIVMTQSPLSLPVTPGEPASISCRSSQSLVHSNRNTYLHWYQQKPGQAPRLLIYKVSNRFSGVPDRFSGSGSGTDFTLKISRVEAEDVGVYYCGQGTQVPYTFGQGTKLEIKRTVAAPSVFIFPPSDEQLKSGTASVVCLLNNFYPREAKVQWKVDNALQSGNSQESVTEQDSKDSTYSLSSTLTLSKADYEKHKVYACEVTHQGLSSPVTKSFNRGEC
notes: single-arm antibody
How did the Kd [2] turn out when B9 was run?
The Kd was 5.74 nM.

B10: GCH005-G1dh/none-Hi-Kn010G3/L0000-k0 (antibody, human IgG1, kappa)
heavy: not shown
chain: EPKSSDKTHTCPPCPAPELLGGPSVFLFPPKPKDTLMISRTPEVTCVVVDVSHEDPEVKFNWYVDGVEVHNAKTKPREEQYNSTYRVVSVLTVLHQDWLNGKEYKCKVSNKALPAPIEKTISKAKGQPREPQVCTLPPSRDELTKNQVSLWCLVKGFYPSDIAVEWESNGQPENNYKTTPPVLDSDGSFFLYSKLTVDKSRWQQGNVFSCSVMHEALHNRYTQKSLSLSP
light: DIVMTQSPLSLPVTPGEPASISCRSSQSLVHSNRNTYLHWYQQKPGQAPRLLIYKVSNRFSGVPDRFSGSGSGTDFTLKISRVEAEDVGVYYCGQGTQVPYTFGQGTKLEIKRTVAAPSVFIFPPSDEQLKSGTASVVCLLNNFYPREAKVQWKVDNALQSGNSQESVTEQDSKDSTYSLSSTLTLSKADYEKHKVYACEVTHQGLSSPVTKSFNRGEC
notes: single-arm antibody
Which Kd [2] does the source give for B10 here?
The Kd was 5.32 nM.

B11: GCH012-G1dh/none-Hi-Kn010G3/L0000-k0 (antibody, human IgG1, kappa)
heavy: not shown
chain: EPKSSDKTHTCPPCPAPELLGGPSVFLFPPKPKDTLMISRTPEVTCVVVDVSHEDPEVKFNWYVDGVEVHNAKTKPREEQYNSTYRVVSVLTVLHQDWLNGKEYKCKVSNKALPAPIEKTISKAKGQPREPQVCTLPPSRDELTKNQVSLWCLVKGFYPSDIAVEWESNGQPENNYKTTPPVLDSDGSFFLYSKLTVDKSRWQQGNVFSCSVMHEALHNRYTQKSLSLSP
light: DIVMTQSPLSLPVTPGEPASISCRSSQSLVHSNRNTYLHWYQQKPGQAPRLLIYKVSNRFSGVPDRFSGSGSGTDFTLKISRVEAEDVGVYYCGQGTQVPYTFGQGTKLEIKRTVAAPSVFIFPPSDEQLKSGTASVVCLLNNFYPREAKVQWKVDNALQSGNSQESVTEQDSKDSTYSLSSTLTLSKADYEKHKVYACEVTHQGLSSPVTKSFNRGEC
notes: single-arm antibody
B11 was tested. Which Kd [2] did it give?
The Kd was 5.4 nM.
